From patent publication US20100112546A1

What was measured:
[1] = target: PSA-alpha-1-antichymotrypsin (PSA-ACT) complex (UniProt P07288); assay: silicon nanowire FET (p-type); mixture of f-PSA 8.5, PSA-ACT 320 and free Ab1 1 x 10^7 pg/ml (f-PSA blocked by Ab1)
[2] = target: PSA-alpha-1-antichymotrypsin (PSA-ACT) complex (UniProt P07288); assay: silicon nanowire FET (p-type); mixture of f-PSA 0.85, PSA-ACT 3200 and free Ab1 1 x 10^7 pg/ml (f-PSA blocked by Ab1)
[3] = target: prostate specific antigen (PSA) (UniProt P07288); assay: silicon nanowire FET (p-type), antibody on the wire; f-PSA 1700 pg/ml
[4] = target: prostate specific antigen (PSA) (UniProt P07288); assay: silicon nanowire FET (p-type), antibody on the wire; f-PSA 850 pg/ml
[5] = target: PSA-alpha-1-antichymotrypsin (PSA-ACT) complex (UniProt P07288); assay: silicon nanowire FET (p-type), antibody on the wire; PSA-ACT 320 pg/ml
[6] = target: PSA-alpha-1-antichymotrypsin (PSA-ACT) complex (UniProt P07288); assay: silicon nanowire FET (p-type); mixture of f-PSA 850, PSA-ACT 0.32 and free Ab1 1 x 10^7 pg/ml (f-PSA blocked by Ab1)
[7] = target: PSA-alpha-1-antichymotrypsin (PSA-ACT) complex (UniProt P07288); assay: silicon nanowire FET (p-type), antibody on the wire; PSA-ACT 0.32 pg/ml
[8] = target: prostate specific antigen (PSA) (UniProt P07288); assay: silicon nanowire FET (p-type), antibody on the wire; f-PSA 8.5 pg/ml
[9] = target: PSA-alpha-1-antichymotrypsin (PSA-ACT) complex (UniProt P07288); assay: silicon nanowire FET (p-type), antibody on the wire; PSA-ACT 3200 pg/ml
[10] = target: PSA-alpha-1-antichymotrypsin (PSA-ACT) complex (UniProt P07288); assay: silicon nanowire FET (p-type); mixture of f-PSA 850, PSA-ACT 3200 and free Ab1 1 x 10^7 pg/ml (f-PSA blocked by Ab1)
[11] = target: prostate specific antigen (PSA) (UniProt P07288); assay: silicon nanowire FET (p-type), antibody on the wire; f-PSA 0.085 pg/ml
[12] = target: PSA-alpha-1-antichymotrypsin (PSA-ACT) complex (UniProt P07288); assay: silicon nanowire FET (p-type), antibody on the wire; PSA-ACT 3.2 pg/ml
[13] = target: prostate specific antigen (PSA) (UniProt P07288); assay: silicon nanowire FET (p-type), antibody on the wire; f-PSA 0.85 pg/ml

Conductance Change, nS [1]: 118 nS
Conductance Change, nS [2]: 138 nS
Conductance Change, nS [3]: 154 nS
Conductance Change, nS [4]: 132 nS
Conductance Change, nS [5]: 124 nS
Conductance Change, nS [6]: 15 nS
Conductance Change, nS [7]: 19 nS
Conductance Change, nS [8]: 81 nS
Conductance Change, nS [9]: 143 nS
Conductance Change, nS [10]: 140 nS
Conductance Change, nS [11]: 10 nS
Conductance Change, nS [12]: 67 nS
Conductance Change, nS [13]: 50 nS
Substance: monoclonal antibody anti-ACT-PSA (AbII, clone PSA1, abcam Inc.)
